In assay [1] the target is Escherichia coli enolase (E. coli) (UniProt P0A6P9). Briefly: crystal structure; enolase and microdomain mixed in a 1:1.5 molar ratio on ice for 20 min; sitting drop, 0.1 M HEPES pH 7.0, 1.6 M ammonium sulfate, 293 K; 1.9 A.
Assay [2] shares this target. In words: native MS; enolase mixed with the microdomain in a 1:1.5 molar ratio, room temperature, 20 min; nanoflow ESI, tandem nondissociating QTOF-MS/MS.

Our source for the stoichiometry N (RNase E microdomain per enolase dimer) values is paper PMC2935283.

Sequence of Escherichia coli enolase (E. coli) (P0A6P9 whole entry): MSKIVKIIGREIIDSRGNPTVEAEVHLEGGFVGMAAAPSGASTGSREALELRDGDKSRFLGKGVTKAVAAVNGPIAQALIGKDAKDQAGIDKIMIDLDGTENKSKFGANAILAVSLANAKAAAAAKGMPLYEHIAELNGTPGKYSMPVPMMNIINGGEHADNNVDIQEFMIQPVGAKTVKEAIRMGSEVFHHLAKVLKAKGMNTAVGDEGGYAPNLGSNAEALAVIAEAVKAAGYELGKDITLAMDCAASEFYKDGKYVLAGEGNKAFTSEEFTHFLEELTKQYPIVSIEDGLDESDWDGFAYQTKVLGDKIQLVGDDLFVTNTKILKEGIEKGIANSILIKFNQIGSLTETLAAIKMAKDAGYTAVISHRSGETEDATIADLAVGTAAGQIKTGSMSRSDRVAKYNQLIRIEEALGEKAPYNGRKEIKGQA

As for “RNase E recognition microdomain (residues 823-850) (peptide)”, the stoichiometry N (RNase E microdomain per enolase dimer) in assay [1] and in assay [2] was 1 in each case.
